This is an account of results in patent US20210147564A1 (TENEOBIO, published 2021).

In experiment [1] the target is T1, human BCMA on NCI-H929 cells (human, UniProt Q02223 1-184).
T1 construct: whole, on cells; also called H929 human cells that express BCMA; BCMA-expressing cell line (H929)
T1 sequence (looked up): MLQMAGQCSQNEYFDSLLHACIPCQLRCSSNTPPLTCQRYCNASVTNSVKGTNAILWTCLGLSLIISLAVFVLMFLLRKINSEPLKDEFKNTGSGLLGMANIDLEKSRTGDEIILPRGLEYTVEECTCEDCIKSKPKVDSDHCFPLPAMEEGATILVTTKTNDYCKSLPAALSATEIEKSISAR
In words: flow cytometry on H929 cells. How it is done: Supernatants of the 4 test anti-BCMA antibodies were also tested by flow cytometry for binding to H929 cells. The samples were measured by flow cytometry using a Guava easyCyte 8HT instrument from EMD Millipore and analyzed using guavaSoft. Bound antibodies were detected with goat anti-human IgG F(ab)2 conjugated to PE (Southern Biotech 2042-09). All antibodies were diluted in PBS with 1% BSA. Positive staining was determined by comparison to staining with a human IgG1 isotype control.

For experiment [2], the target named is T2, human BCMA ECD protein (Abcam ab50089) (human, UniProt Q02223 1-54).
T2 construct: extracellular domain; Bought protein; also called human BCMA protein; recombinant BCMA protein
T2 sequence (looked up): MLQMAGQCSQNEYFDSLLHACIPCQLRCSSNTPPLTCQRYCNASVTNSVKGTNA
Put plainly: ELISA on human BCMA ECD; Octet off-rate. How it is done:
Supernatants of 4 antibodies were tested for binding in a standard ELISA assay to human and cynomolgus BCMA. Binding to recombinant BCMA protein was determined by ELISA using human BCMA ECD obtained from Abcam (ab50089). The BCMA ECD protein was used at a concentration of […] to capture UniAbs at 50 ng/mL. Binding of UniAbs was detected with a goat anti-human IgG HRP conjugated antibody (ThermoFisher 31413). All antibodies were diluted in 1×TBS with 0.05% Tween-20 and 1% dry milk powder.
For orientation: ELISA stands for enzyme-linked immunosorbent assay.

B1: heavy chain-only anti-BCMA antibody (UniAb) with the heavy chain variable region of SEQ ID NO: 15 (antibody, V domains shown)
VH: EVQLLESGGGLVQPGGSLRLSCAASGFTFSSYAMSWVRQAPGKGLEWVSSISGSGDYIYYADSVKGRFTISRDISKNTLYLQMNSLRAEDTAVYYCAKEGTGANSSLADYRGQGTLVTVSS
notes: Heavy chain-only antibody expressed in HEK cells (CH1 deleted, no light chain), tested as supernatant; also called anti-BCMA UniAb; HCAb
For B1, the binding result in experiment [1] and in experiment [2] was “binds” each time.

B2: heavy chain-only anti-BCMA antibody (UniAb) with the heavy chain variable region of SEQ ID NO: 13 (antibody, V domains shown)
VH: QVQLVESGGGLVQPGGSLRLSCAASGFTFSSHAMTWVRQAPGKGLEWVAAISGSGDFTHYADSVKGRFTISRDNSKNTVSLQMNNLRAEDTAVYYCAKDEDGGSLLGYRGQGTLVTVSS
notes: as for B1
Turning to B2, the binding result in experiment [1] and in experiment [2] was “binds” in each case.

B3: heavy chain-only anti-BCMA antibody (UniAb) with the heavy chain variable region of SEQ ID NO: 14 (antibody, V domains shown)
VH: EVQLLESGGGLIQPGGSLRLSCAASGFTFSSHAMTWVRQAPGKGLEWVSAISGSGDYTHYADSVKGRFTISRDNSKNTVYLQMNSLRAEDSAVYYCAKDEDGGSLLGHRGQGTLVTVSS
notes: as for B1
Regarding B3, the binding result in experiment [1] and in experiment [2] was “binds” in each case.

B4: heavy chain-only anti-BCMA antibody (UniAb) with the heavy chain variable region of SEQ ID NO: 12 (antibody, V domains shown)
VH: QVQLVESGGGLVQPGGSLRLSCAASGFTFTNHAMSWVRQAPGKGLELVSSISGNGRTTYYADSVKGRFTISRDISKNTLDLQMNSLRAEDTAVYYCAKDGGETLVDSRGQGTLVTVSS
notes: as for B1
With B4, the binding result in experiment [1] and in experiment [2] was “binds” in each case.
